From patent publication US7598290B2, “Cytotoxic agents comprising new C-2 modified taxanes” (priority 2005, dated 2009)

Key:
[1] = tested on: Human colon tumor cells, COLO 205; experiment: In vitro potency and specificity, WST-8 assay, antigen positive COLO 205 cells; assay type: cell-based; details: COLO 205 (antigen positive), 4 days incubation
Procedure: (§1) In vitro potency and specificity of huC242-Taxoid conjugate. Samples of free taxoid or huC242-Taxoid conjugate were added to a 96-well flat bottomed tissue culture plate and titrated using serial dilutions ranging from 1×10^−12 M to 3×10^−7 M. Human colon tumor cells, COLO 205, or human melanoma cells, A-375, were added to the wells in such a way that there were triplicate samples for each drug concentration for each cell line. The plates were incubated at 37° C. in an atmosphere of 5% CO2 for 4 days.
(§2) At the end of the incubation period, 20 μl of the tetrazolium reagent WST-8 (2-(2-methoxy-nitrophenyl)-3-(4-nitrophenyl)-5-(2,4-disulfophenyl)-2-tetrazolium, monosodium salt]) was added to each well, and the plates were returned to the incubator for 2 hours. The absorbance in each well of the plates was then measured using the Molecular Devices plate reader at 450 nm. Surviving fraction of cells at each concentration of taxoid or conjugate are plotted in FIGS. 2 a,b.

[2] = tested on: human melanoma cells, A-375; experiment: In vitro potency and specificity, WST-8 assay, antigen negative A-375 cells; assay type: cell-based; details: for IC50: A-375 (antigen negative), 4 days incubation, WST-8
Procedure: as §1, §2

Molecule | IC50 ([1]; Homo sapiens, 96 h) [pM] | IC50 ([2]; Homo sapiens, 96 h) [pM] | IC50 [1] [pM] | IC50 [2] [pM] | antigen negative cells less sensitive than COLO 205 ([2]; A-375 versus COLO 205)
CSSC(C)(C)CCC(=O)O[C@H]1C(=O)[C@@]2(C)[C@H]([C@H](OC(=O)c3ccco3)[C@]3(O)C[C@H](OC(=O)[C@H](O)[C@@H](NC(=O)OC(C)(C)C)c4ccco4)C(C)=C1C3(C)C)[C@]1(OC(C)=O)CO[C@@H]1C[C@@H]2O [IGT-16-141, 3′-dephenyl-3′-(2-furyl)-2-debenzoyl-2-(2-furoyl)-10-(4,4-dimethyl-4-methyldithiobutanoyl)-docetaxel] | ~800 | ~800 |  |  | 
huC242-taxoid (conjugate, chains of the INN, looked up, taxoid payload conjugate) VH: QVQLVQSGAEVKKPGETVKISCKASDYTFTYYGMNWVKQAPGQGLKWMGWIDTTTGEPTYAQKFQGRIAFSLETSASTAYLQIKSLKSEDTATYFCARRGPYNWYFDVWGQGTTVTVSS VL: DIVMTQSPLSVPVTPGEPVSISCRSSKSLLHSNGNTYLYWFLQRPGQSPQLLIYRMSNLVSGVPDRFSGSGSGTAFTLRISRVEAEDVGVYYCLQHLEYPFTFGPGTKLELK |  |  | 310 | 29000 | about 94 fold
